Fewer inactive variants are shown than the library holds.
B1: TPR 5TU (parent)
chain: GGAUCUUCUCGAUCUAACAAAAAAGACAAAUCUGCCACAAAGCUUGAGAGCAUCUUCGGAUGCAGAGGCGGCAGCCUUCGGUGGCGCGAUAGCGCCAACGUUCUCAACUAUGACACGCAAAACGCGUGCUCCGUUGAAUGGAGUUUAUCAUG

Variants of: B1
Assay: polymerase ribozyme fitness, log enrichment relative to wild type (log ratio); higher = more active; in vitro selection for triplet polymerase activity
Procedure, shortened: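 Mutant libraries for each subunit of a heterodimeric triplet polymerase ribozyme were made by PCR and then transcribed. Each library underwent one round of in vitro selection in triplicate: annealing with a biotinylated primer, the partner subunit and triplets, frozen incubation at −7 °C, gel excision of extended constructs, streptavidin-bead capture and RT-PCR. Input and output libraries were Illumina-sequenced, and only genotypes with ≥10 input reads and ≥1 read per output were kept. Fitness is the logarithm, base 2, of genotype enrichment over wild-type enrichment, computed from inverse-variance-weighted replicate averages.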

| Variant | polymerase ribozyme fitness (log ratio) |
| --- | --- |
| GGAUCUUCUCGAUCUAACAAAAAAGACAAUUCUGCCACAAAGCUUGAGAGCAUCUUCGGAUGCAGAGGCGGCAGCCUUCGGUGGCGCGAUAGCGACAACGUUCUCAACUAUGACACGCAAAACGCGUGCUCCGUUGAAUGGAGUUUAUCAUG [A30U C95A] | -3.34 |
| GGAUCUUCUCGAUCUAACAAAAAAGACAAUUCUGCCAGAAAGCUUGAGAGCAUCUUCGGAUGCAGAGGCGGCAGCCUUCGGUGGCGCGAUAGUGCCAACGUUCUCAACUAUGACACGCAAAACGCGUGCUCCGUUGAAUGGAGUUUAUCAUG [A30U C38G C93U] | ≤ -4.2 |
| GGAUCUUCUCGAUCUAACAAAAAAGACAAGUCUGCCACAAAGCUUGAGAGCAUCUUCGGCUGCAGAUUCGGCAGCCUUCGGUGUCGCGAUAGCGCCAACGUUCUCAACUAUGACACACAAAACGCGUGCUCCGUUGAAAGGAGUUUAUCAUG [A30G A60C G67U G68U G84U G117A U139A] | ≤ -4.2 |
| GGAUCUUCUCGAUCUAACAAAAAAGACAAUUAUGCCACAAAGCUUGAGAGCAUUUUCGGAUGCAGAGGCGGCAGCCUUCGGUGGCGAGAUAGCGCCAACGUUCUCAUCUAUGACACGCAAAACGCGUGCUCCGUUGAAUGGAGUUUAUCAUG [A30U C32A C54U C87A A107U] | ≤ -4.2 |
| GGAUCUUCUCGAUCUAACAAAAAAGACAAGUCUGCCACAAAGCUUAAGAGCAUCUUCGGAUGCAGAGGCCGCAGCCUGCGGUGGCCCGAUAGCGCCAACGUUCUCAACUAUGACACGCAAAACGCGUGCUCCGUUGAAUGGCGUUAAUCAUG [A30G G46A G70C U78G G86C A142C U146A] | ≤ -4.2 |
| GGAUCUUCUCGAUCUAACAAAAAAGACAAGUCUGCCACAAAGCUUGAGAGCAUCUUUGGAUGCAGAGGCGGCAGCCUUCGGUGGCGCGAUAGCGCCAACGUUCUCAACUAUGACACGCAAAACGCGUGCUCCGUUGAAUGGAGUUUAUCAUG [A30G C57U] | -2.81 |
| GGAUCUUCUCGAUCUAACAAAAAAGACAAGUCUGCCACAAAGCUUGAGAGCAUCUUCGGAUGAAGAGGCGGCAGCCUUCGGUGGCGCGAUAGCGCCAAUGUUCUCAACUAUGACACGCAAAACGCGUGCUCCGUUGAAUGGAGUUUAUCAUG [A30G C63A C99U] | ≤ -4.2 |
| GGAUCUUCUCGAUCUAACAAAAAAGACAAGUCUGCCACAAUGCUUGAGAGCAUCGUCGGAUGCAGAGGCGGCAGCCUUCGGUGGCGCGAUAGUGCCAACGUUCUCAACUAUGACACGCAAAACGCGUGCUCCGUUGAAUGGAGUUUAUCAUG [A30G A41U U55G C93U] | ≤ -4.2 |
| GGAUCUUCUCGAUCUAACAAAAAAGACAAUUCUGCCACCAAGCUUGAGCGCAUCUUCGGAUGCAGAGGCGGCAGCCUUCGGUGGCGCGAUAGCGCCAACGUUCCCAACUAUGACACGCAAAACGGGUGCUCCGUUGAAUGGAGUUUAUCAUG [A30U A39C A49C U104C C125G] | ≤ -4.2 |
| GGAUCUUCUCGAUCUAACAAAAAAGACAAUUCUGCCACAAAGCUUGAGAGCAUCUUCGGAUGCAGAGGCGGCAGCCUUCGGUGGCGCGAUAGUGCCAACGUUCUCAACUAUGACACGCAAAACGCGUGCUCCGUUGAAUGGAGUUUAUCAUG [A30U C93U] | -3.92 |
| GGAUCUUCUCGAUCUAACAAAAAAGACAAGUCUGCCACAAAGCUUGAGAGCAUCUUCGGAUGCAGAGGCGGCAGCCUUCGGUGGCGCGAUAGCGCCAACGUUCUCAACUAUGACACGCAAAAUGCGUGCUCCUUUGAAUGGAGUUUAUGAUG [A30G C123U G133U C149G] | ≤ -4.2 |
| GGAUCUUCUCGAUCUAACAAAAAAGACAAGUCUGCCAAAAAGCUUGAGAGCAUCUACGGAUGCAGAGGCGGCAGCCUUCGGUGGCGCGAUAGCGCCAACGUUCUCAUCUAUGACACGCAACACGCGUGCUCCGUUGAAUGGAGUUUAUCAUG [A30G C38A U56A A107U A121C] | ≤ -4.2 |
| GGAUCUUCUCGAUCUAACAAAAAAGACAAGUCUGCCACAAAGCUUGAGAGCAUCUUCGGAUGCAGAGGCGGCAGCCUUCGGUGGCGCGAUUGCGCCAACGUUCUCAACUAUGACACGCAAAACGCGUGCUCCGUUGAAUGGAGUUUAUCAUG [A30G A91U] | -4.18 |
| GGAUCUUCUCGAUCUAACAAAAAAGACAAGUCUGCCACAAAGCUUGAGAGCAUCUUCGGAUGCAGAGGCGGCAGCCUUUGGUGGCGCGAUAGCGCCAACGUUCUCAACUAUGACACGCAAAACGCGUGCUCCGUUGAAUCGAGUUUAUCAUG [A30G C79U G140C] | ≤ -4.2 |
| GGAUCUUCUCGAUCUAACAAAAAAGACAAGUCUGCCACAAAGCUUGAGAGCAUCUUCGGCUGCAGAGGCGGCAGCCUUCGGUGGCGCGAUAGCGCCAACGUUCUCAACUGUGUCACGCAAAACGCGUGCUCCGUUGAAUGGAGUUUAUCGUG [A30G A60C A110G A113U A150G] | ≤ -4.2 |
| GGAUCUUCUCGAUCUAACAAAAAAGACAAGUCUGCCACAAGGCUUGAGAGCGUCUUCGGAUGCAGAGGCGGCAGCCUUCGGUGGCGCGAUAGCGCCAACGUUCUCAACUAUGACACGCAAAACGCGUGCUCCGUUGAAUGGAGUUUAUCAUG [A30G A41G A52G] | -2.03 |
| GGAUCUUCUCGAUCUAACAAAAAAGACAAUUCUGCCACAAGGCUUGAGAGCAUCUUCGGAUGCAGAGGCGGCAGCCUUCGGUGGCGCGAUAGCGCCAACGUUCUCAACUAUGACACGCAAAACGCGUGCUCCGUUGAAUGGGGUUUAUCAUG [A30U A41G A142G] | -3.58 |
| GGAUCUUCUCGAUCUAACAAAAAAGACAAUUCUGCCACUAAGCUUGAGAGCAUCUUCGGAUACAGAGGCAGCAGCCUUCGGUGGCGCGCUAGCGCCAACGUUCUCAACUAUGACACGCAAAACGCGUGAUCCGUUGAAUGGCGUUUAUCAUG [A30U A39U G62A G70A A89C C129A A142C] | ≤ -4.2 |
| GGAUCUUCUCGAUCUAACAAAAAAGACAAGUCUGCCAUAAAGCUUGAAAGCAUCUUCGGAUGCAGCGGCGGCAGCCUUCUGUGACGCGAUAGCGCCAACGUUCUGAACAAUGACACGCAAAACGAGUGCUCCGUUGAAUGGAGUUUAUCAUG [A30G C38U G48A A66C G80U G84A C105G U109A C125A] | ≤ -4.2 |

Source: the RNAGym collection of RNA variant scans (doi:10.1073/pnas.2313332121)
